Legend:
Test in all cases: BLI
CCL4L1_HUMAN = biological target: T1, CCL4L1_HUMAN (Homo sapiens)
T1 chain: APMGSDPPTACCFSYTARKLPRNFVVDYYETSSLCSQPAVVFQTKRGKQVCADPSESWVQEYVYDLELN

CCL24_HUMAN = biological target: T2, CCL24_HUMAN (Homo sapiens)
T2 chain: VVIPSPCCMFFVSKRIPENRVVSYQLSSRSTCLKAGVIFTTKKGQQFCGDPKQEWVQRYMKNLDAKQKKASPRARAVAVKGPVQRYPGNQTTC

CCL1 = biological target: T3, CCL1 (human, UniProt P22362 24-96)
T3 chain: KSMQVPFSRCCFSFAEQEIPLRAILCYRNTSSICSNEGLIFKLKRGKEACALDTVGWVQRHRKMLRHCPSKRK

CCL8 = biological target: T4, CCL8 (human, UniProt P80075 24-99)
T4 chain: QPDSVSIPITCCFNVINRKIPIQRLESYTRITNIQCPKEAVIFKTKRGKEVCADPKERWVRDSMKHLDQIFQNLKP

CCL5 = biological target: T5, CCL5 (human, UniProt P13501 24-91)
T5 chain: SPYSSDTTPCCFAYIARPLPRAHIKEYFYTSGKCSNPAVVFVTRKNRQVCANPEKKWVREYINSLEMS

B1: P985_AMBPA, purified, C-terminal StrepII-8xHis tag (natural protein)
chain: ETGDEESEELGASTDVDYEELDANCTCPAPALTSTRNNKHYPLGCIYNCSSYNCTIPDGTPCYVLTLGEVKEHLQIGSTVPNCTCGLCRNGTCVSNGTVEECFAVEEIEET
In the case of B1, the Kd (CCL4L1_HUMAN) is reported as 21 nM, the Kd (CCL24_HUMAN) is reported as 41 nM and the Kd (CCL1) is reported as 8.3 nM.

B2: P983_AMBCA, purified, C-terminal StrepII-8xHis tag (natural protein)
chain: ETGEDTGTEDDFDYGNTGCPFPVLGNYKSNMTKPVGCKNKCGSGYEVLNDTTPCYVIDQKVFNNMVPLRQYSKCPLGFCENGECKPNDQAEDCYKGREEQKGGGGGSGGGGSGGASAWSHPQFEKLEHHHHHHHH
Work on B2 yielded a Kd (CCL4L1_HUMAN) of 2.9 nM.

B3: P1183_AMBTR, purified, C-terminal StrepII-8xHis tag (natural protein)
chain: ETGEAPKDDFEYDGGCPFVVLDNGTHVKPAGCSHLCNGAPETLDNIECYNVTEEVAKRMTPGIPYACWLGWCSKGECKRDNRTEVCYRGSEEE
B3 showed a Kd (CCL8) of 1100 nM.

B4: P467_RHIPU, purified, C-terminal StrepII-8xHis tag (natural protein)
chain: ETGAEKSLDSDSSGEDYELWTQGCPFLVAENRTGFGTTVSCQHNCNGAIEKVPEGEPCYTIGEDGLGRMKLNLPYNCSLGECSGGVCVPNGRSDVCFKRTWEENNKAMA
Work on B4 yielded a Kd (CCL4L1_HUMAN) of 4.7 nM, a Kd (CCL5) of 7.7 nM and a Kd (CCL1) of 53 nM.

B5: P974_AMBCA, purified, C-terminal StrepII-8xHis tag (natural protein)
chain: ETGENTQQEEQDYDYGTDTCPFPVLANKTNKAKFVGCHQKCNGGDQKLTDGTACYVVERKVWDRMTPMLWYECPLGECKNGVCEDLRKKEDCRKGNGEEK
Work on B5 yielded a Kd (CCL1) of 71 nM and a Kd (CCL8) of 2.6 nM.

B6: P546_AMBCA, purified, C-terminal StrepII-8xHis tag (natural protein)
chain: ETGENTQQEEEDYDYGTDTCPFPVLANKTNKAKFVGCHQKCNGGDQKLTDGTACYVVERKVWDRMTPMLWYSCPLGECKNGVCEDLRKKEECRKGNGEEK
In the case of B6, the Kd (CCL4L1_HUMAN) is reported as 8.9 nM and the Kd (CCL8) is reported as 1.3 nM.

Source: article PMC5487423 (2017)
